Target: human Tau441 (2N4R), recombinant, phosphorylated in vitro by PKA (human) (UniProt P10636)
Experiment: cross-linking + other: mass photometry; BS3 amine-amine crosslinking of purified 4R tau (tau441, with or without PKA phosphorylation) with purified recombinant 14-3-3 β, 20-fold molar excess, 1× PBS pH 8.0, 30 min room temperature; mass photometry in DPBS at room temperature

Sequence of human Tau441 (2N4R), recombinant, phosphorylated in vitro by PKA (human) (P10636 other isoform, or with tags, fused parts or gaps): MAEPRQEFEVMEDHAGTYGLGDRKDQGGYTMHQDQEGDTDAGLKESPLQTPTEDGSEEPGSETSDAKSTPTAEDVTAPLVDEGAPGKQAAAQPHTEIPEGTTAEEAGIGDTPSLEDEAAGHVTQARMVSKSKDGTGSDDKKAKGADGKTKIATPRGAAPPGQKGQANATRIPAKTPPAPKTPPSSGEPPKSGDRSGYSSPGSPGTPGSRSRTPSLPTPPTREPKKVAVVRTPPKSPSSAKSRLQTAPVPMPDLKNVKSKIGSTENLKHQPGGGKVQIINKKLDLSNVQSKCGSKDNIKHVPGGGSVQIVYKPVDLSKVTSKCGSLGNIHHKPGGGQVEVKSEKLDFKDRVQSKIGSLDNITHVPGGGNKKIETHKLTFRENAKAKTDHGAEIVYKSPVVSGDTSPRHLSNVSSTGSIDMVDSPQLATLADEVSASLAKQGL

## purified recombinant 14-3-3 β (from UniProt P31946 1-246) (natural protein)
  stoichiometry N (14-3-3-β per tau): 2

— paper PMC10035768
